Experimental findings from patent US20030060605A1 (LA JOLLA INSTITUTE FOR ALLERGY AND IMMUNOLOGY, published 2003) are described below.

Test [1] deals with soluble HSV gD-1 (glycoprotein D of HSV-1) (herpes simplex virus type 1, UniProt Q69091 26-331). The test can be described thus: binding inhibition experiments, flow cytometry.
In test [2] the target is gD-1 (Δ290-299t), mutant of soluble HSV gD-1 (herpes simplex virus type 1, UniProt Q69091 26-331). Description: binding inhibition experiments, flow cytometry.
Test [3] concerns the target T1, LTβ (33 kDa) and LTα (23-25 kDa) complex from detergent extracts of PMA activated II-23.D7 cells (human, UniProt P01374 35-205; Q06643 1-244).
T1 construct: Native complex, in NP40 extract; also called LTα1β2 complex; surface LTα1β2
T1 sequence (looked up) 1: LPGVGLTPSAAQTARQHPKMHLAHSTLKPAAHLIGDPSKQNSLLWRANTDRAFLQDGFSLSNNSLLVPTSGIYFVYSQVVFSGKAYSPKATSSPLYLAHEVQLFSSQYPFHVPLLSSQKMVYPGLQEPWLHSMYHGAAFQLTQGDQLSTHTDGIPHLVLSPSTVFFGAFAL
T1 sequence (looked up) 2: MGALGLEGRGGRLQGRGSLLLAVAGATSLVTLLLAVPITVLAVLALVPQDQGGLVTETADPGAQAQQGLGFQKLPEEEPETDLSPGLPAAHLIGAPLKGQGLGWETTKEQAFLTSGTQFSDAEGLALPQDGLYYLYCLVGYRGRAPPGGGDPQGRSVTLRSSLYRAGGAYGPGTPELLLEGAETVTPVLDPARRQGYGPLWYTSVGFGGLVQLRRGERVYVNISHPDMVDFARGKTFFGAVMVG
The test can be described thus: flow cytometry, II-23.D7 cells activated with PMA alone, goat anti-human IgG-PE; target taken as the surface LTα1β2 of these cells [upper histogram].

Test [4] addresses T2, p30 (LIGHT), the 30 kDa cell surface HVEM ligand of activated II-23.D7 T hybridoma cells and human T cells (human, UniProt O43557 1-240).
T2 construct: whole, on cells; On the cell surface in flow cytometry; in NP40 detergent extracts in the precipitations
Description: flow cytometry, saturation binding on activated II-23.D7 cells; whole activated (PMA + ionomycin) II-23.D7 cells; apparent half-maximal binding by flow cytometry.

In a further test the target is T3, LTαTyr108Phe (UniProt P01374 35-205).
T3 construct: also called LTαY108F; LTα (Y108F)
T3 sequence (looked up): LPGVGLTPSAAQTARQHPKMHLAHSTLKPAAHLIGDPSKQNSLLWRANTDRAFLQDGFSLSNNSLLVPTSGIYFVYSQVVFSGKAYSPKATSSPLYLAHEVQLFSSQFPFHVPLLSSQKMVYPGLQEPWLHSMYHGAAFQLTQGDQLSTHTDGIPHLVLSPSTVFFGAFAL
Description: competition flow cytometry: HVEM:Fc pre-incubated with the ligand, then added to II-23.D7 cells activated with PMA and ionomycin, anti-huIgG-PE.

T2 sequence (O43557 whole entry): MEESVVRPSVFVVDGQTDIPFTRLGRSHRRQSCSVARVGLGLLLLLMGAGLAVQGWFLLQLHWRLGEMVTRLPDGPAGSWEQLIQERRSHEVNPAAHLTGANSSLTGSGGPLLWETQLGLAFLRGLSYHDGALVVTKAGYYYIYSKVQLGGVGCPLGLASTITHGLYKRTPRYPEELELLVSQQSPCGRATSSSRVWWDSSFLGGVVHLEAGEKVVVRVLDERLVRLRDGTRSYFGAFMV

B1: TNFR60:Fc (Fc fusion, UniProt P19438 30-211, looked up)
chain: LVPHLGDREKRDSVCPQGKYIHPQNNSICCTKCHKGTYLYNDCPGPGQDTDCRECESGSFTASENHLRHCLSCSKCRKEMGQVEISSCTVDRDTVCGCRKNQYRHYWSENLFQCFNCSLCLNGTVHLSCQEKQNTVCTCHAGFFLRENECVSCSNCKKSLECTKLCLPQIENVKGTEDSGTT
notes: also called TNFR:Fc; TNFR1-Fc; not shown: Fc region of human IgG1
Regarding B1, the binding result in test [1] and in test [2] was “no binding” in each case.

B2: HVEM:Fc fusion protein (extracellular region of HVEM, 1 to K184, fused to the Fc of human IgG1) (Fc fusion, UniProt Q92956 39-184, looked up)
chain: LPSCKEDEYPVGSECCPKCSPGYRVKEACGELTGTVCEPCPPGTYIAHLNGLSKCLQCQMCDPAMGLRASRNCSRTENAVCGCSPGHFCIVQDGDHCAACRAYATSSPGQRVQKGGTESQDTLCQNCPPGTFSPNGTLEECQHQTK
notes: range 1-184; Made in the baculovirus vector pVL1392; Residues 1-184 include the signal peptide; also called huHVEM:Fc; hu HVEM:Fc; not shown: Fc of human IgG1
Consider B2, for which the binding result (in test [3]; with LTαTyr108Phe) was “no binding” throughout. Further, in test [4], the EC50 came to 20 nM.
